Measurements taken from US9474782B2, “Use of decorin for increasing muscle mass” (Association Francaise contre les Myopathies, priority 2009, dated 2016).
Values joined by “and” are separate entries in the source; they are usually repeats but may differ in a detail not shown here. Equal values may be shown once.

Columns and labels:
mdx mice = test: Weight of tibialis anterior muscles after intramuscular injection into dystrophic mdx mice; type: in vivo, mouse; conditions: for Activity of decorin fragment on muscle growth (ability to increase muscle mass), in words: decorin fragments, intramuscular injection
Experimental: The protein used was recombinant mouse decorin (mDecorin) of sequence SEQ ID NO: 6, provided by R&D Systems. Twenty-four to forty hours before the injection, 100 μl of 150 mM sterile NaCl and 6 μl of 250 μM ZnCl2 were added to 100 μg of mDecorin powder. The final volume was 106 μl with a final concentration of approximately 1 μg/μl. For the injections into the control muscles a mixture was also prepared of 100 μl of 150 mM NaCl and 6 μl of 250 μM ZnCl2. All these solutions, after being vortexed, were stored at 4° C. In Vivo Injection mdx dystrophic ([…] muscular dystrophy) or gamma-sarcoglycan −/− mice were used that were at least 6 weeks old. 20 μg of mDecorin, i.e. 22 μl of the solution described above (20 μg Decorin+15 μM ZnCl2/22 μl NaCl), were injected into the left tibialis anterior (LTA), the muscle treated. 22 μl of the control solution described above (15 μM ZnCl2/22 μl NaCl) were administered into the control muscle, the right tibialis anterior (RTA). A specific number of days after injection, the mice were sacrificed and the RTA and LTA were removed, weighed then frozen for further histological study. Preparation and Injection of the Solution Containing the Peptide mDCN 31-71: […] It was dissolved at 2 mg/ml in 150 mM NaCl and stored at −80° C. For injections, the preparation protocol was identical to that used for the protein, i.e. 24-40 hours before injection, the desired amount of peptide was removed from the stock solution and mixed with a solution of zinc chloride (ZnCl2) and 150 mM NaCl, to produce a final zinc concentration of 15 μM. The injection protocol was identical to that used for the protein. The RTA and LTA muscles were collected 7 (D7), 14 (D14) or 21 (D21) days after the injection and weighed. The experiment was repeated on three separate mice each time. The results are summarised in the following tables: mdx Mice were Injected Intramuscularly into the TA with the Following Formulations: LTA 1: 65 μg peptide 41 DCN+15 μM ZnCl2/33 μl NaCl; RTA 2: 15 μM ZnCl2/33 μl NaCl. At D18, the mice were sacrificed and the weight of the RTA and LTA muscles was measured.

[1] = test system: gamma-sarcoglycan -/- mice; test: Weight of tibialis anterior muscles at D18 after intramuscular injection into dystrophic gamma-sarcoglycan -/- mice; type: in vivo; conditions: D18, one value per mouse
Experimental: The protein used was recombinant mouse decorin (mDecorin) of sequence SEQ ID NO: 6, provided by R&D Systems. Twenty-four to forty hours before the injection, 100 μl of 150 mM sterile NaCl and 6 μl of 250 μM ZnCl2 were added to 100 μg of mDecorin powder. The final volume was 106 μl with a final concentration of approximately 1 μg/μl. For the injections into the control muscles a mixture was also prepared of 100 μl of 150 mM NaCl and 6 μl of 250 μM ZnCl2. All these solutions, after being vortexed, were stored at 4° C. In Vivo Injection mdx dystrophic ([…] muscular dystrophy) or gamma-sarcoglycan −/− mice were used that were at least 6 weeks old. 20 μg of mDecorin, i.e. 22 μl of the solution described above (20 μg Decorin+15 μM ZnCl2/22 μl NaCl), were injected into the left tibialis anterior (LTA), the muscle treated. 22 μl of the control solution described above (15 μM ZnCl2/22 μl NaCl) were administered into the control muscle, the right tibialis anterior (RTA). A specific number of days after injection, the mice were sacrificed and the RTA and LTA were removed, weighed then frozen for further histological study. A second series of experiments was performed on four gamma-sarcoglycan −/− mice. The protocol was identical to that described for mdx mice. The mice were sacrificed on D18.

With “SEQ ID NO:15: fragment of 30 residues (residues 42 to 71 of murine decorin SEQ ID NO: 6) (DNPLISMCPYRCQCHLRVVQCSDLGLDKVP; murine 42-71 DCN)” the “Activity of decorin fragment on muscle growth (ability to increase muscle mass), in words” value (mdx mice) was “also active”.

With “mDCN 31-71: peptide (SEQ ID NO: 7) corresponding to residues 31-71 of murine decorin, zinc-binding N-terminal part, synthesised by NeoMPS (DEASGIIPYDPDNPLISMCPYRCQCHLRVVQCSDLGLDKVP; murine 31-71 DCN)” the “Weight of treated muscle (LTA)” value (mdx mice; 65 μg peptide + 15 μM ZnCl2/33 μl NaCl intramuscular into left tibialis anterior, D18, one value per mouse) was 0.0583 g and 0.0468 g and 0.05 g, the Growth (mdx mice; 65 μg peptide + 15 μM ZnCl2/33 μl NaCl intramuscular, treated LTA vs control RTA, D18, one value per mouse) was 8.77% and 19.39% and 24.69% and the “Activity of decorin fragment on muscle growth (ability to increase muscle mass), in words” value (mdx mice) was “had the required activity”.

B1: mDecorin: recombinant mouse decorin (mDecorin) of sequence SEQ ID NO: 6, provided by R&D Systems (protein)
chain: MKATLIFFLLAQVSWAGPFEQRGLFDFMLEDEASGIIPYDPDNPLISMCPYRCQCHLRVVQCSDLGLDKVPWDFPPDTTLLDLQNNKITEIKEGAFKNLKDLHTLILVNNKISKISPEAFKPLVKLERLYLSKNQLKELPEKMPRTLQELRVHENEITKLRKSDFNGLNNVLVIELGGNPLKNSGIENGAFQGLKSLSYIRISDTNITAIPQGLPTSLTEVHLDGNKITKVDAPSLKGLINLSKLGLSFNSITVMENGSLANVPHLRELHLDNNKLLRVPAGLAQHKYIQVVYLHNNNISAVGQNDFCRAGHPSRKASYSAVSLYGNPVRYWEIFPNTFRCVYVRSAIQLGNYK
modifications: murine DCN
B1 was tested, and the “Weight of treated muscle (LTA)” value (mdx mice; 20 μg mDecorin + 15 μM ZnCl2 intramuscular into left tibialis anterior, Day 7, one value per mouse) was 0.0682 g and 0.0781 g and 0.0771 g, the “Weight of treated muscle (LTA)” value (mdx mice; 20 μg mDecorin + 15 μM ZnCl2 intramuscular into left tibialis anterior, Day 14, one value per mouse) was 0.1124 g and 0.103 g and 0.0911 g and the “Weight of treated muscle (LTA)” value (mdx mice; 20 μg mDecorin + 15 μM ZnCl2 intramuscular into left tibialis anterior, Day 21, one value per mouse) was 0.1041 g and 0.0943 g and 0.1003 g. The “Growth in % (100*LTA/RTA) − 100” value (mdx mice; 20 μg mDecorin + 15 μM ZnCl2 intramuscular, treated LTA vs control RTA, Day 7, one value per mouse) was 3.18% and 0.90% and 2.94%, the Growth (mdx mice; 20 μg mDecorin + 15 μM ZnCl2 intramuscular, treated LTA vs control RTA, Day 14, one value per mouse) was 58.98% and 48.41% and 6.67% and the “Growth (increase in muscle mass)” value (mdx mice; 20 μg mDecorin + 15 μM ZnCl2 intramuscular, treated LTA vs control RTA, Day 21, one value per mouse) was 53.09% and 66.31% and 37.21%. The “Growth (increase in muscle mass)” value (mdx mice; 20 μg mDecorin + 15 μM ZnCl2 intramuscular, treated LTA vs control RTA, Day 21, one value per mouse, listed as decorin) was 53.09% and 66.31%, the “Weight of treated muscle (LTA)” value ([1]; 20 μg mDecorin + 15 μM ZnCl2 intramuscular into left tibialis anterior) was 0.0505 g and 0.0485 g and 0.0593 g and 0.0551 g and the Growth ([1]; 20 μg mDecorin + 15 μM ZnCl2 intramuscular, treated LTA vs control RTA) was 10.75% and 17.43% and 12.31% and 24.10%.
